# Data: article PMC7658486
# Target: rainbow trout IL-2 (IL-2A), FLAG-tagged, from insect cells (rainbow trout (Oncorhynchus mykiss))
# Experiment: SEC; Superose 12 column, PBS (-), 0.5 ml/min, 10-15 μg protein purified from insect cell supernatant; calibrated with standard proteins
substance,measurement,value
"rainbow trout IL-2 (IL-2A), FLAG-tagged, from insect cells (ligand)",stoichiometry N,2
